These results are taken from publication PMC9074039, “Molecular analysis and essentiality of Aro1 shikimate biosynthesis multi-enzyme in Candida albicans” (Life Science Alliance, 2022).

Data set [1] deals with the molecule itself. Put plainly: SEC; Superdex 200, 150 mM NaCl, 10 mM Hepes pH 7.5; tag-free Aro1 purified from C. albicans.
Data set [2] deals with the molecule itself. In words: crystal structure; Aro1_(SK-DHQase-DHSD), sitting drop, room temperature; four copies in the asymmetric unit.
Data set [3] concerns the molecule itself. In words: crystal structure; Aro1_(DHQS) with 2 mM NADH and 0.5 mM ZnCl2, sitting drop, room temperature; two copies in the asymmetric unit.

B1: full-length C. albicans Aro1 (enzyme, UniProt Q5AME2 1-1551, looked up)
chain: MSIEKVPILGKETIHVGYGIADHIVREVIANLASSTYVIVTDTNMARTPQYSKLTDDFKTNLSEKRPESRLLTYCVSPGENNKNRATKAAVEDFLLQQGCTRDTVILAVGGGVIGDMIGFVAATFMRGVRVVQVPTTLLAMVDSSVGGKTAIDTPLGKNFIGAFHQPEYVFCDVSFLETLPARQFINGMAEVVKTAAIWNEEEFTRLENFSKKFLSVVTSKKPDLQSIKAELVKTVLESVRVKAGVVSSDEKEAGLRNLLNFGHTIGHAIEAVLTPEALHGECVSIGMIKEAELSRYLGILPPVAVARLSKCLVAYGLPVSIDDKEFLKKVGPKRHYVEIDILLKKMAIDKKNDGSKIRCVLLEKIGKCYQLKAHQVSKQDLSFVLTDEVLVHPFTNPPKENIIVPPGSKSISNRALILAALGNGTVRVKNLLHSDDTKHMLDAVASLKGAEISTEDNGETIVVKGNGGNLVTSGEELYLGNAGTASRFLTTVASLVGKSQASDDVILTGNARMQERPIGPLVDALGSNGSEIEYLNKQGSLPLKISAGNGLKGGRIELAATISSQYVSSILMCAPYAKEPVTLALVGGKPISQLYIDMTCAMMKSFGIEVTKSTTEEYTYHIPKGTYKNPSEYVIESDASSATYPLAFAAMTGTSCTIPNIGSSSLQGDAKFAVDVLKPMGCKVEQTTTSTTVTGPPRGHLKPLPHVDMEPMTDAFLTASVVAAVAKGGSSTSITGIANQRVKECNRIEAMVTELAKFGVPANELPDGIEIHGIDIEDLKTPEISKRGVSSYDDHRVAMSFSLLAGLCKEPVLILERSTTGKTWPGWWDILHSKFKIELDGYEPPFNTDKHVDKSSDKSIIVIGMRGTGKSTLSEWLASFLGFKMLDMDKYLEEKLGTGIKSLIKAKGWEYFRQEEAIVAKECFTKFSKGYVLSTGGGIVEGEDARQQLKSYADNGGIVLHLHRDLDETVTFLAADTTRPAYSSEVQEVWLRREKWYHECSNYHFYSSHCSTEDEFNHLRRSFVNYIKLITGAERPVVPAGRSAAVVLTSPDLNEVVGDLESITIGADAVELRVDLFKDTSAEFVAAQIAVIRKHADLPIIYTVRTVSQGGKFPDENVDELKSLLLLGIRLGVAYVDLQLTAPNELIEEISSKKGFTRVIGTYQDINGELKWNNVEWKNKYNQGVSMNADIVRLVGKANSIQDNLDLENFKKQNTLKPLIAFNLGSQGKLSQVLNGTFTPISHKLLPNDEEFLTIGELNQTYFDIGGFTAKKFWVIGSPIEHSRSPNLHNAGYKALNLPYQFGRFEATDVDVVYDNLINKPDFGGLAITMPLKLDIMKFATKLSDAAETIGAVNTLIPIEGGYFGDNTDWVGISNSFIRAGVPPKSSSNGLVVGAGGTSRAAIYALHQMGCAKIYLVNRTAAKLEELVKSFPKDYNLEIVETEQQADKASKVSLAVSCIPADKPLDGEVLKKIERILSNGSEQSAGFKPTLLEASYKPRVTPIMKLTEEQYKWKVIPGVEMLVNQGDRQFKLHTGFTAPYEIIHRAVVEE
notes: Aro1 pentafunctional shikimate pathway multi-enzyme (DHQS, EPSPS, SK, DHQase, DHSD domains), Candida albicans, full length, residues 1-1551; Expressed from the tagged genomic ARO1 alleles under the tetO promoter in C. albicans; the His6TEV tag was removed with TEV protease before SEC and cryo-EM; also called His6TEVAro1; wild-type Aro1; source: C. albicans CaLC6830 …
For B1, the “stoichiometry N” value in data set [1] came to 2.

B2: Aro1_(SK-DHQase-DHSD), C. albicans Aro1 residues 845-1,551 (SK, DHQase and DHSD domains) (domain or fragment, UniProt Q5AME2 845-1551, looked up)
chain: PPFNTDKHVDKSSDKSIIVIGMRGTGKSTLSEWLASFLGFKMLDMDKYLEEKLGTGIKSLIKAKGWEYFRQEEAIVAKECFTKFSKGYVLSTGGGIVEGEDARQQLKSYADNGGIVLHLHRDLDETVTFLAADTTRPAYSSEVQEVWLRREKWYHECSNYHFYSSHCSTEDEFNHLRRSFVNYIKLITGAERPVVPAGRSAAVVLTSPDLNEVVGDLESITIGADAVELRVDLFKDTSAEFVAAQIAVIRKHADLPIIYTVRTVSQGGKFPDENVDELKSLLLLGIRLGVAYVDLQLTAPNELIEEISSKKGFTRVIGTYQDINGELKWNNVEWKNKYNQGVSMNADIVRLVGKANSIQDNLDLENFKKQNTLKPLIAFNLGSQGKLSQVLNGTFTPISHKLLPNDEEFLTIGELNQTYFDIGGFTAKKFWVIGSPIEHSRSPNLHNAGYKALNLPYQFGRFEATDVDVVYDNLINKPDFGGLAITMPLKLDIMKFATKLSDAAETIGAVNTLIPIEGGYFGDNTDWVGISNSFIRAGVPPKSSSNGLVVGAGGTSRAAIYALHQMGCAKIYLVNRTAAKLEELVKSFPKDYNLEIVETEQQADKASKVSLAVSCIPADKPLDGEVLKKIERILSNGSEQSAGFKPTLLEASYKPRVTPIMKLTEEQYKWKVIPGVEMLVNQGDRQFKLHTGFTAPYEIIHRAVVEE
notes: Aro1, Candida albicans, residues 845-1551: SK domain (857-1032), linker (1033-1038), DHQase domain (1039-1267), DHSD domain (1268-1551); Four copies in the asymmetric unit; also called Aro1_(SK-DHQ-DHSD); source: E. coli BL21(DE3) Gold, purified (Ni-NTA, TEV cleavage, second Ni-NTA); not shown: His6, N-terminal, cleaved
On to B2, for which, in data set [2], the binding result was “binds”.

B3: Aro1_(DHQS), C. albicans Aro1 residues 1-387 (DHQS domain) (domain or fragment, UniProt Q5AME2 1-387, looked up)
chain: MSIEKVPILGKETIHVGYGIADHIVREVIANLASSTYVIVTDTNMARTPQYSKLTDDFKTNLSEKRPESRLLTYCVSPGENNKNRATKAAVEDFLLQQGCTRDTVILAVGGGVIGDMIGFVAATFMRGVRVVQVPTTLLAMVDSSVGGKTAIDTPLGKNFIGAFHQPEYVFCDVSFLETLPARQFINGMAEVVKTAAIWNEEEFTRLENFSKKFLSVVTSKKPDLQSIKAELVKTVLESVRVKAGVVSSDEKEAGLRNLLNFGHTIGHAIEAVLTPEALHGECVSIGMIKEAELSRYLGILPPVAVARLSKCLVAYGLPVSIDDKEFLKKVGPKRHYVEIDILLKKMAIDKKNDGSKIRCVLLEKIGKCYQLKAHQVSKQDLSFVLT
notes: Aro1, Candida albicans, residues 1-387, 3-dehydroquinate synthase (DHQS) domain; Crystallised with NADH and ZnCl2; source: E. coli BL21(DE3) Gold, purified (Ni-NTA, TEV cleavage, second Ni-NTA); not shown: His6, N-terminal, cleaved
B3: the binding result in data set [3] is “binds”.
